Assay results reported in patent US20230364234A1.

Assays:
[1] = biological target: CD4-10-17b CAR with an inserted myc epitope, expressed on cells transduced with the SFFV/CAR-T-myc/GFP lentivirus (human) (UniProt P01730); experiment: flow cytometry, primary human T cells transduced with SFFV/CAR-T-myc/GFP, gated CD8+GFP+
[2] = biological target: CD4-10-17b CAR with an inserted myc epitope, expressed on cells transduced with the SFFV/CAR-T-myc/GFP lentivirus (human) (UniProt P01730); experiment: cell-based or functional assay
[3] = biological target: CD4-10-17b CAR with an inserted myc epitope, expressed on cells transduced with the SFFV/CAR-T-myc/GFP lentivirus (human) (UniProt P01730); experiment: flow cytometry, primary human T cells transduced with SFFV/CAR-T-myc/GFP, gated CD4+GFP+

## 9E10 anti-myc epitope antibody
[1]
  percent of transduced CD8+ T cells bound: 25%
[2]
  IFN-γ production by CD4+ GFP+ T cells (flow cytometry, overnight stimulation): 3 fold
[3]
  percent of transduced CD4+ T cells bound: 35%
